± gives the standard deviation of the averaged measurements.
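Note: ATP exposure 15 min at 22 °C before imaging.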

This data set relates to ATP. Briefly: switch fluorescence ratio, 500 uM ATP over buffer (Cy3 cluster intensity, sum of 5 cycles each) (fold (ratio)); higher = stronger signal-on switching upon ATP binding; sequences stand for … in TCGTCGGCAGCGTCAGATGTGTATAAGAGACAGTTTTTTTTTTTTTTTTTTTTTTTTT…TC. To be noted: aptamer strand: ATP DNA aptamer (quencher-CACCTGGGGGAGTATTGCGGAGGAAGG + anchor), 100 nM annealed; ATP concentration: 500 uM. An outline of the steps:
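Imaging in selection buffer was followed by imaging after 15 min with 500 uM ATP at 22 °C, for Cy3-labelled switching-strand clusters annealed to 100 nM quencher-labelled ATP aptamer on a modified Illumina MiSeq flow-cell. Five of these buffer/ATP cycles ran, separated by NaOH stripping and re-annealing. The fluorescence ratio per cluster is summed target-cycle over summed buffer-cycle Cy3 intensity, averaged per switch-domain sequence; clusters outside 100-1000 RFU were removed.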
On to TAGTAGAGT, for which the switch fluorescence ratio is 0.9637 ± 0.0076.
In the case of GGATGACGTC it was 1.035 ± 0.0091.
The value for GGGGGGTGCG was 0.999 ± 0.019; that for TTCCCGATCA was 1.01 ± 0.018.
The value for TTAAGGAGCG was 1.04 ± 0.016.
As for CAGAGTAAGC, the switch fluorescence ratio was determined as 1.01 ± 0.021.
In the case of GGGTTTAGTA it was 0.998 ± 0.02; in that of GCGTTAGCCA, 1.01 ± 0.022; in that of AGAAGGGGG, 0.968 ± 0.022.
Turning to ATAAGCCCGT, the switch fluorescence ratio was 0.976 ± 0.014.
Regarding GATGTAACAA, the switch fluorescence ratio came out at 0.998 ± 0.035.
In the case of TTTTAGTGAC it was 1.022 ± 0.0053.
The value for AAGGGGGATC was 1 ± 0.032; that for ACAATGGATG was 0.994 ± 0.041.
The value for CACGTACTCC was 1.5 ± 0.097; that for CAGGGGTGCG was 0.991 ± 0.013.
With AGGAGGGGT, the switch fluorescence ratio worked out at 1.02 ± 0.07.
The value for CGGGATAGTA was 0.994 ± 0.041; that for TTGATATTTT was 1.04 ± 0.096; that for GGACTTGGTT was 1.01 ± 0.034.
Regarding GTGTGTTTAG, the switch fluorescence ratio was determined as 0.9892 ± 0.0058.
Turning to ATCTTTATGG, the switch fluorescence ratio stood at 0.964 ± 0.014.
Take AACCAGTTAG: the switch fluorescence ratio turned out to be 1.01 ± 0.021.
The value for GTGTTTATAG was 0.993 ± 0.018; that for ATCGATTTCT was 1.004 ± 0.0049.
In the case of GACCATACGC it was 1.42 ± 0.055.
As to TTTGGGTAAA, the switch fluorescence ratio turned out to be 1.02 ± 0.032.
The value for GATATATTTT was 0.976 ± 0.01.
In the case of GGAACTGCTG it was 1.04 ± 0.029; in that of TCAGTACGAC, 1.2 ± 0.021; in that of CCGCCGGGGT, 1.91 ± 0.31.
In the case of GAGAATGAGG it was 0.962 ± 0.0093.
As to ATGATGTTGA, the switch fluorescence ratio was found to be 1 ± 0.04.
As for CAAACCAGGA, the switch fluorescence ratio was found to be 1.09 ± 0.07.
Regarding GGGTGTTTCT, the switch fluorescence ratio came to 1.01 ± 0.028.
In the case of GGAATAATGT, the switch fluorescence ratio came out at 1.03 ± 0.061.
In the case of TTCGCTAGCT it was 1.03 ± 0.058; in that of AGGCGTGTCA, 1.004 ± 0.0083; in that of GCTATTGGAA, 0.993 ± 0.022.
Consider GTTGGATGCT, for which the switch fluorescence ratio came out at 0.949 ± 0.028.
With GGTAATGTTT, the switch fluorescence ratio was determined as 1.01 ± 0.014.
In the case of GGCTTCTGGG it was 0.98911 ± 0.00037; in that of CTAGGGCATA, 1.05 ± 0.047; in that of GTCAGTAGGC, 0.991 ± 0.017.
In the case of AAGCTGAGAT it was 1.01 ± 0.024; in that of ACGGGGCCGT, 0.985 ± 0.031.
As for CCAGTTATGG, the switch fluorescence ratio came to 0.999 ± 0.068.
In the case of CGGCCGAGGT it was 1.02 ± 0.02.
On to AGGGGAGTCG, for which the switch fluorescence ratio was 0.987 ± 0.021.
For CGGGGGATAG, the switch fluorescence ratio worked out at 1.06 ± 0.074.
For AAGATGACGC, the switch fluorescence ratio was 1.12 ± 0.13.
As to TTTTTAATTG, the switch fluorescence ratio is 0.997 ± 0.024.
TAATTTTAAA: the switch fluorescence ratio came out at 0.988 ± 0.018.
In the case of GATTAAAAGT it was 0.969 ± 0.011; in that of ATTAAAAGTG, 0.986 ± 0.013.
In the case of TTGGTATAA it was 0.999 ± 0.021; in that of TAGGGCATTT, 1.03 ± 0.056; in that of AGTTTGGCAT, 0.9958 ± 0.0071.
In the case of TTTTGCGGTC it was 1.02 ± 0.053; in that of TTGTAGGCGA, 1.09 ± 0.0026.
For the sequence CCAAATGTCT, the switch fluorescence ratio worked out at 1.016 ± 0.0049.
On to GGTTTGATAT, for which the switch fluorescence ratio turned out to be 0.972 ± 0.013.
The value for GCTATGATAA was 0.9933 ± 0.0072; that for CCGTGGGACC was 1.11 ± 0.016; that for AAAGAGTGTT was 0.9776 ± 0.0081.
For GGAGGGTGGT, the switch fluorescence ratio came to 0.9906 ± 0.0019.
In the case of TATTAGTAGC it was 0.9995 ± 0.0013; in that of GAACTGATAA, 1.16 ± 0.2; in that of TAAATTTTAA, 0.9818 ± 0.0082.
With TCAGTGTTTT, the switch fluorescence ratio was 1 ± 0.04.
The value for ATATTATTTT was 0.9788 ± 0.0047.
In the case of TTGGTTAGCC it was 0.975 ± 0.078; in that of AGTCCCGTGC, 1.03 ± 0.052; in that of CCGGTGTTTG, 0.987 ± 0.021.
In the case of CTCTGCGTCA it was 1.32 ± 0.025; in that of AATTCTAATA, 0.9997 ± 0.0033.
For TGATGGGGG, the switch fluorescence ratio was found to be 0.981 ± 0.016.
TGGACATGTG: the switch fluorescence ratio is 1.05 ± 0.1.
As to GGGTTTTATA, the switch fluorescence ratio worked out at 1.016 ± 0.01.
With TTTTACGCAG, the switch fluorescence ratio is 1.03 ± 0.044.
For ACTGTGCACC, the switch fluorescence ratio is 1.05 ± 0.052.
The value for TCGTAAACGG was 1.01 ± 0.02; that for TGAAACACCG was 1.46 ± 0.66; that for CTTCTGGGGC was 1.04 ± 0.055.
On to TTTAATTATT, for which the switch fluorescence ratio stood at 1.02 ± 0.0053.
In the case of AGATTTATGT it was 1.01 ± 0.047; in that of CGCTTTGGAA, 0.964 ± 0.064; in that of TTGGTTATCT, 1.01 ± 0.035.
In the case of TTGGGGGAGA it was 1.02 ± 0.038.
The value for AAAAGGATAG was 0.954 ± 0.017.
With TTATCGAGAA, the switch fluorescence ratio stood at 0.9879 ± 0.0024.
In the case of ACTAAGAGGG it was 1.048 ± 0.0032; in that of CTGTTTCCGA, 1.03 ± 0.052; in that of ATGGGGGAAA, 0.991 ± 0.011.
In the case of ATAGAGGGAT it was 0.98 ± 0.026; in that of CGTACTGGAG, 1.01 ± 0.056; in that of GAGTGAGCTT, 0.966 ± 0.046.
Consider GGGGGTCTTT, for which the switch fluorescence ratio amounted to 0.99 ± 0.023.
The value for GGGGGGAATG was 1 ± 0.03; that for CTGATTTTAG was 1.02 ± 0.071; that for TGTTGTAGAC was 0.961 ± 0.0098.
Regarding CGATTTGGGG, the switch fluorescence ratio is 0.968 ± 0.017.
In the case of GGGTCTTTGG it was 0.97 ± 0.023.
In the case of CTGGGTTTAT it was 1 ± 0.042; in that of CAGGTGGGGT, 1.16 ± 0.08.
The value for GGGGAATGCA was 1.01 ± 0.034; that for TATGGTGTAG was 1 ± 0.043; that for TAGTTTTTTT was 0.986 ± 0.022.
In the case of GGGGGTCCAT, the switch fluorescence ratio turned out to be 0.954 ± 0.031.
For the sequence GCGGGGGAAG, the switch fluorescence ratio was determined as 1 ± 0.02.
In the case of GTGGCAAGTT it was 0.97 ± 0.017; in that of CTCGTTGAAG, 0.979 ± 0.032; in that of TGAACTCGGG, 0.989 ± 0.017.
The value for AGGCTTGGTG was 0.988 ± 0.012.
In the case of TTGGGTATAT it was 0.979 ± 0.037.
In the case of CGTTTCGCAG, the switch fluorescence ratio was 1.03 ± 0.068.
As to TTTTGGTCCA, the switch fluorescence ratio came to 0.981 ± 0.015.
Take CATGGTATTT: the switch fluorescence ratio is 0.9797 ± 0.0095.
Regarding GTGTTTTCTT, the switch fluorescence ratio amounted to 1.006 ± 0.0025.
The value for CGGACTGATT was 1 ± 0.064.

The values above are taken from the supplement of paper PMC10126150.
